One experiment deals with T1, CTLA4 (UniProt P16410 36-161, limits assumed).
T1 construct: Immobilized antigen in the Octet assays
The experiment can be described thus: Octet biolayer interferometry; antigen immobilized, B-Body as analyte. The text has this:
In each instance, the antigen is immobilized and the B-Body is the analyte.
(Biolayer interferometry detects binding as a change in optical thickness at a sensor tip.)

The target of another experiment is T2, CD3.
T2 chain: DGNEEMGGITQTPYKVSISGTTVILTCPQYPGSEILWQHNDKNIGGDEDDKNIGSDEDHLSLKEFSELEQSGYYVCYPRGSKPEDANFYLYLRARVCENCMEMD
The experiment can be described thus: BLI (Octet), two-fold serial dilution (200-12.5 nM) of the construct.

T1 sequence (P16410 36-161 limits assumed): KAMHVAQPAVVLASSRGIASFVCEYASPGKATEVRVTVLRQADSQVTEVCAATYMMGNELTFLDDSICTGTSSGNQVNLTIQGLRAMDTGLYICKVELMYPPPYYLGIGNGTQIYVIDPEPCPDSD

B1: bivalent bispecific B-Body “BC1” (bispecific antibody)
chain 1: not shown
chain 2: EVQLVESGGGLVQPGGSLRLSCAASGFTFSDYDIHWVRQAPGKGLEWVGDITPYDGTTNYADSVKGRFTISADTSKNTAYLQMNSLRAEDTAVYYCARLVGEIATGFDYWGQGTLVTVSSASPREPQVYTDPPSRDELTKNQVSLTCLVKGFYPSDIAVEWESNGQPENNYKTTPPVLDSDGSFFLYSKLTVDKSRWQQGNVFSCSVMHEALHNHYTQKSLSLSGEC
chain 3: not shown
chain 4: QVQLVESGGGVVQPGRSLRLDCKASGITFSNSGMHWVRQAPGKGLEWVAVIWYDGSKRYYADSVKGRFTISRDNSKNTLFLQMNSLRAEDTAVYYCATNDDYWGQGTLVTVSSASTKGPSVFPLAPSSKSTSGGTAALGCLVKDYFPEPVTVSWNSGALTSGVHTFPAVLQSSGLYSLSSVVTVPSSSLGTQTYICNVNHKPSNTKVDKKVEPPKSC
As to B1, in the experiment with CTLA4, the binding result is reported as “no binding”.

B2: non-mutagenized SP34-89 monovalent B-Body (bispecific antibody, V domains shown)
VH: EVQLVESGGGLVQPGGSLRLSCAASGFTFNTYAMNWVRQAPGKGLEWVARIRSKYNNYATYYADSVKGRFSISRDDSKNTAYLQMNSLRAEDTAVYYCVRHGNFGNSYVSWFAYWGQGTLVTV
VL: QAVVTQEPSLTVSPGGTVTLTCRSSTGAVTTSNYANWVQQKPGQAPRGLIGGTNKRAPWTPARFSGSLLGGKAALTITGAQAEDEADYYCALWYSNLWVFGGGTKLTVL
notes: VL and VH cloned into one arm of a 1×1 BC1 B-Body; also called SP34-89 VL-WT/SP34-89 VH-WT
The Kd is the equilibrium constant for the complex coming apart. In general, koff refers to the first-order rate constant of dissociation. As usually defined, the kon is a measure of how fast the partners come together. In the case of B2, in the experiment with CD3, the Kd was 23 nM, the off-rate (koff) was determined as 0.0071 s⁻¹ and the kon worked out at 300000 M⁻¹ s⁻¹.

For the origin of these results see patent US20250026861A1 (INVENRA, published 2025).
